From patent publication US9266923B2, “Compositions and methods for treatment of thrombosis and for prolonging survival of stored platelets” (priority 2010, dated 2016) come the findings set out here.

One test addresses T1, mouse platelet GPIbα (Mus musculus, UniProt O35930).
T1 construct: endogenous in cells; host or cells: platelets of wild-type mice (in vivo)
T1 sequence (O35930 17-734): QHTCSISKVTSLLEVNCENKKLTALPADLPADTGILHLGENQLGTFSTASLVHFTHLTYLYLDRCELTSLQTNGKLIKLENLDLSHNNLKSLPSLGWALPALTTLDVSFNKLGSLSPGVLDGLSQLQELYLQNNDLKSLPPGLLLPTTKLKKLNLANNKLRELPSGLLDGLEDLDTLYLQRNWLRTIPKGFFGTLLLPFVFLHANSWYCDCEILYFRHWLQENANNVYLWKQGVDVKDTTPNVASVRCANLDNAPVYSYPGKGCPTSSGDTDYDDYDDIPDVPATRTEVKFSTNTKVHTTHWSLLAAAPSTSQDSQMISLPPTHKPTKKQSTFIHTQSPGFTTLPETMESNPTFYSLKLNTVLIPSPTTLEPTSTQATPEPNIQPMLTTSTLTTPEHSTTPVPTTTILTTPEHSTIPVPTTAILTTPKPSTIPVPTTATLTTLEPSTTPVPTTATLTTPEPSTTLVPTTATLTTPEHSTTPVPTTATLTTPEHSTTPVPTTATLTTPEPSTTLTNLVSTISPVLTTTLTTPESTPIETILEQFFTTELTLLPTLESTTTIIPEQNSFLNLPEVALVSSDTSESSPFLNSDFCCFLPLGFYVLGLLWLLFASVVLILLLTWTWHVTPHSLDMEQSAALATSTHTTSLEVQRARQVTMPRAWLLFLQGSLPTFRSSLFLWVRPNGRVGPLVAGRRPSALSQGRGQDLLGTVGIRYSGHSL
T1 sequence (P56400 27-206 partner): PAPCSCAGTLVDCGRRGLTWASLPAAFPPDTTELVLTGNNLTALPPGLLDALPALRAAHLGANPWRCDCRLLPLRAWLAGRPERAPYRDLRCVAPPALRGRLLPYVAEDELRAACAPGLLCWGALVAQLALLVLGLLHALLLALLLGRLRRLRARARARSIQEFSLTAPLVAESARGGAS
T1 sequence (O88186 17-177 partner): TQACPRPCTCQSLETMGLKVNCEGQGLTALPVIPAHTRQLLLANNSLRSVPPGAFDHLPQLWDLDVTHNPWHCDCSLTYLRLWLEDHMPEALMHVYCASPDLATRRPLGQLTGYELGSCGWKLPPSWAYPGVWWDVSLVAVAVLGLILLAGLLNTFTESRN
The test can be described thus: In vivo activity in wild-type mice. The source says:
(§1) CCP-014 extended tail bleeding time, as measured in Ware et al., Id.

The next test concerns the target T2, human GPIbα (Homo sapiens, UniProt P07359).
T2 construct: mice expressing human GPIbα; expressed in transfected cells; host or cells: platelets of transgenic mice (Ware et al., PNAS 97:2803-08 (2000))
Kind of test: In vivo anti-thrombotic activity, tail bleeding time in transgenic mice expressing human GPIbα. More on the design: species or system transgenic mouse.
Excerpt: as §1

T2 sequence (P07359 17-652, one chain of several): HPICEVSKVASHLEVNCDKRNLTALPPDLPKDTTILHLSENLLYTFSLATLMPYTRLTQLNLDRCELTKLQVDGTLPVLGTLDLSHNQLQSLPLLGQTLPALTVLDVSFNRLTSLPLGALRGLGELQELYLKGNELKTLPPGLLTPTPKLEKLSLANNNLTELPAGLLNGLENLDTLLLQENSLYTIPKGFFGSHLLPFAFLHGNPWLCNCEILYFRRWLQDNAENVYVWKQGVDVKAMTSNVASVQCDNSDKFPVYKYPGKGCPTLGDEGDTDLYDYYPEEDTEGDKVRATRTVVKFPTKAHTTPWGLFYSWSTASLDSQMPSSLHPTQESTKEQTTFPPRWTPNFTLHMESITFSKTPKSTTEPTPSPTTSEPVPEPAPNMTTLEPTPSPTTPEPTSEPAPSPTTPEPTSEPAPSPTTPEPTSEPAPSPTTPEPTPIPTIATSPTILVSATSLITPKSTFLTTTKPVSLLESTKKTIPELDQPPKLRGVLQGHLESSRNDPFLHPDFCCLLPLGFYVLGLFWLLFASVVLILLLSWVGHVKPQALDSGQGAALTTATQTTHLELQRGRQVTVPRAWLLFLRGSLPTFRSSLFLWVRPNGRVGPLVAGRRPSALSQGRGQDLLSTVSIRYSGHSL

As to “Ac-A C T E R M A L H N L C G G-NH2 (SEQ ID NO: 1) or Ac-A C T E R M A L H N L C G G K-NH2 (SEQ ID NO: 2) (Ac-ACTERMALHNLCGGK-NH2; cysteine pairing not given here) [CCP-014]”, the activity in vivo result with mouse platelet GPIbα is “not active”; in the test with human GPIbα (transgenic mice in which human GPIbα replaces the mouse platelet GPIbα) it was “active”. The tail bleeding time entry with human GPIbα (mice expressing human GPIbα, measured as in Ware et al.) is “extended”.
